Test results taken from patent publication US20240182594A1.

Biological target: human OX40 (human) (UniProt P43489)
Assay: cell-based or functional assay

Chain of UniProt P43489 (P43489 29-277): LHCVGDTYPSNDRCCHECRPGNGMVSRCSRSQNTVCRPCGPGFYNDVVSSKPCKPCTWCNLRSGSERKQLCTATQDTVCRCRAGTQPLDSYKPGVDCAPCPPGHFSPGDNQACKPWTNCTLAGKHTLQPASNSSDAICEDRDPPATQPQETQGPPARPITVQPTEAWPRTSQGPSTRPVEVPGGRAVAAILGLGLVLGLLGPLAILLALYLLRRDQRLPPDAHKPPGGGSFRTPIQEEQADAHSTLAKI

EC50 for T cell costimulation (proliferation of activated CD4+ Teff cells, CellTiter-Glo): 14 µg/mL
Substance: soluble OX40 ligand (BPS Biosciences, Catalog #71185) (from UniProt P23510 51-183)
